Reference: paper PMC10922565 (Cell chemical biology, 2023)
One block for each binder: values may come before it.

Experiments:
Assay in all cases: flow cytometry on cells
[1] = target: mouse CD98hc expressed on REN cells (Mus musculus, UniProt P10852-2)
[2] = target: mouse TrkB expressed on REN cells (Mus musculus, UniProt P15209)
[3] = target: mouse TfR-1 expressed on REN cells (Mus musculus, UniProt Q62351)
Chain of mouse TfR-1 expressed on REN cells (Q62351 whole entry): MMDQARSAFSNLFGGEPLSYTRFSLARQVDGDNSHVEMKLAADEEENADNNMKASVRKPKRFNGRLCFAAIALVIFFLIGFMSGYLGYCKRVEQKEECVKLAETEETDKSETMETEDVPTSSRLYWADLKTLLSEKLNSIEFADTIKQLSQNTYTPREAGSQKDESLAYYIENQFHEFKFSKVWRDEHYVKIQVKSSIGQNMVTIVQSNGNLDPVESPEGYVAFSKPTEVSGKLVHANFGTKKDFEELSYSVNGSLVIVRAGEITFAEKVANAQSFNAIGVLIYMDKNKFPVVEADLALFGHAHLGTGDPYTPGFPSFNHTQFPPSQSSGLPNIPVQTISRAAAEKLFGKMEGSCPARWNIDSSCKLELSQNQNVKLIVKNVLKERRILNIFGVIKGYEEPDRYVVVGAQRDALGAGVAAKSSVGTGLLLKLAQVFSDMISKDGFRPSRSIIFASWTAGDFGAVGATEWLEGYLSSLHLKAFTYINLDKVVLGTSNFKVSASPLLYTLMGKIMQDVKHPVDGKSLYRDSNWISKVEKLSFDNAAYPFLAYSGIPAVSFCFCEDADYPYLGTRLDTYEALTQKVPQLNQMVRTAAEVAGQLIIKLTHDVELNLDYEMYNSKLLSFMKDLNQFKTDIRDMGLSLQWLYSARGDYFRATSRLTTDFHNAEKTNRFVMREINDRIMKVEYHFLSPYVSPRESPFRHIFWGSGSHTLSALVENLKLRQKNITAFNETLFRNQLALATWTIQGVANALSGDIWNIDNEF

Chain of mouse TrkB expressed on REN cells (P15209 32-821): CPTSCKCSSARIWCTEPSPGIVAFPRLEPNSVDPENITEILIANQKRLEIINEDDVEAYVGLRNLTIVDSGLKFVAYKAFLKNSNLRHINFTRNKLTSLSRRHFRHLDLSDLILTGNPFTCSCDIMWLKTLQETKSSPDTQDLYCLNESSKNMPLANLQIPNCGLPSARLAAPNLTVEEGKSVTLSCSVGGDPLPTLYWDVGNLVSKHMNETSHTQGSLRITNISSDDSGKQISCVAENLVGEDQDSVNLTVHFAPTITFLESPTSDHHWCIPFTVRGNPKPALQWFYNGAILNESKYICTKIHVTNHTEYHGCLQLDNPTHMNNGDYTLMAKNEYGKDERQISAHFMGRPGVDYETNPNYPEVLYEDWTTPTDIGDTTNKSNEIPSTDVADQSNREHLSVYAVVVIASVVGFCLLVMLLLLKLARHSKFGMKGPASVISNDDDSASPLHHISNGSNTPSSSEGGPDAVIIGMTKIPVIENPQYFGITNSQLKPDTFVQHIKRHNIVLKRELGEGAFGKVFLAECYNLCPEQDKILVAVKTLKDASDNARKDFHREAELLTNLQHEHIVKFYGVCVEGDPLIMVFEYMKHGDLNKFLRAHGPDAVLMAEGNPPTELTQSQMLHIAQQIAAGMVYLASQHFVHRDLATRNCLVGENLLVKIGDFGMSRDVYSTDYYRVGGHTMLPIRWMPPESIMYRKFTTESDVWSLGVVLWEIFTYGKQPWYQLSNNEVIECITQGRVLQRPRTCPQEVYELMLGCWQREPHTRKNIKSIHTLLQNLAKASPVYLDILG

EC50 [1]: 1.9 nM
B1: CD98hc IgG (antibody, V domains shown)
VH: EVQLVESGGGLVQPGRSLKLSCAASGFTFSDYYMAWVRQAPKKGLEWVASISYEGSSIYYGDSVKGRVTISRDNAKSTLYLQMNSLRSEDTATYYCARRGYYGYKPFDYWGQGVMVTVSS
VL: DIQMTQSPASLSASVGETVTIECRASEDIYNGLAWYQQKPGKSPQLLIYNIDNLHTGVPSRFSGSGSGTQYSLKINSLQSEDVASYFCQQYYTYAYTFGAGTKLELK

binding result [2]: binds
B2: 29D7 (TrkB-IgG) (antibody, V domains shown)
VH: EVQLVESGGGLVQPGGSLRLSCAASGYSFTAYFMNWVRQAPGKGLEWVARINPNNGDTFYTQKFKGRFTISRDNAKNSLYLQMNSLRAEDTAVYYCARRDYFGAMDYWGQGTLVTVSS
VL: DIQMTQSPSSLSASVGDRVTITCRASQTISNNLHWYQQKPGKAPKLLIKSASLAISGVPSRFSGSGSGTDFTLTISSLQPEDFATYYCQQSNSWPNTFGGGTKVEIK

EC50 [3]: 3.1 nM
B3: TfR-1 IgG (clone 8D3) (antibody, V domains shown)
VH: EVQLVESGGGLVQPGNSLTLSCVASGFTFSNYGMHWIRQAPKKGLEWIAMIYYDSSKMNYADTVKGRFTISRDNSKNTLYLEMNSLRSEDTAMYYCAVPTSHYVVDVWGQGVSVTVSS
VL: DIQMTQSPASLSASLEEIVTITCQASQDIGNWLAWYQQKPGKSPQLLIYGATSLADGVPSRFSGSRSGTQFSLKISRVQVEDIGIYYCLQAYNTPWTFGGGTKLELK
